Test results published in the supplement of paper PMC5998384.

Columns and labels:
[1] = system: HeLa Kyoto; assay: solubility in G1/S (NP-40 vs SDS abundance) (log2 ratio); higher = more soluble; conditions: cell cycle stage: G1/S
[2] = system: HeLa Kyoto; assay: solubility change mitosis vs G1/S (difference of NP-40 vs SDS log2 ratios) (log2 ratio difference); higher = more soluble in mitosis
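For solubility change mitosis vs G1/S (difference of NP-40 vs SDS log2 ratios) in this document: synchronized HeLa Kyoto cells (double thymidine block for G1/S, nocodazole release for mitosis), protein amounts in NP-40 versus SDS lysates quantified by mass spectrometry, three biological replicates.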
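For solubility in G1/S (NP-40 vs SDS abundance) in this document: HeLa Kyoto cells arrested at G1/S by double thymidine block, proteins quantified by TMT10plex mass spectrometry in mild NP-40 versus SDS extracts, three biological replicates.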

Chain of NEK6 (chain, as listed by the source): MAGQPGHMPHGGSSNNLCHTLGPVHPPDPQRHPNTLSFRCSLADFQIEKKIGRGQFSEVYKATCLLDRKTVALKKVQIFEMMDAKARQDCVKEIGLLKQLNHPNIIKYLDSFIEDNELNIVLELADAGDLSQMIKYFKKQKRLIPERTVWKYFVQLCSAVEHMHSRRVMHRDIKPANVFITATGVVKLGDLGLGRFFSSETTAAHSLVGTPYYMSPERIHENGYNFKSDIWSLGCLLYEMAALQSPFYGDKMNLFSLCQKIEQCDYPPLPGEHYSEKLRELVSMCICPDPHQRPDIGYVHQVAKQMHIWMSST
Chain of PCIF1 (chain, as listed by the source): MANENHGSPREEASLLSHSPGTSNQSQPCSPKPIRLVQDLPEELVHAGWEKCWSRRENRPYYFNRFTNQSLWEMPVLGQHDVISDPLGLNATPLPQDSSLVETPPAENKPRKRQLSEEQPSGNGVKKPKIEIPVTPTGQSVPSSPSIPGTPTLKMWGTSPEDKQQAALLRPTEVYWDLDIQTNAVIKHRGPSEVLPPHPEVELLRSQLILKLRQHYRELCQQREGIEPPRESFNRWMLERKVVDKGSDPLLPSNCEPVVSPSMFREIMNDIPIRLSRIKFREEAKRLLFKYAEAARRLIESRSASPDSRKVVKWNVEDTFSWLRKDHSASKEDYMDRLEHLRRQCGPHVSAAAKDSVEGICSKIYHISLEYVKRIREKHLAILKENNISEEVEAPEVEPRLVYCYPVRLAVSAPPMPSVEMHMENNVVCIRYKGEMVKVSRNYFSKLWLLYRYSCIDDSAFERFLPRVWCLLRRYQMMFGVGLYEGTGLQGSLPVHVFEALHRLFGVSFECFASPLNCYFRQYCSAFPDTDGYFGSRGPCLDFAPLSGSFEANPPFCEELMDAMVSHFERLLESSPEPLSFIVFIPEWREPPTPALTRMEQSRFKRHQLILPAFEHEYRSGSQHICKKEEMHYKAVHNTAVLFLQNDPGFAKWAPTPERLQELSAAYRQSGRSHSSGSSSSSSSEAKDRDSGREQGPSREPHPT
Chain of MAP1A (chain, as listed by the source): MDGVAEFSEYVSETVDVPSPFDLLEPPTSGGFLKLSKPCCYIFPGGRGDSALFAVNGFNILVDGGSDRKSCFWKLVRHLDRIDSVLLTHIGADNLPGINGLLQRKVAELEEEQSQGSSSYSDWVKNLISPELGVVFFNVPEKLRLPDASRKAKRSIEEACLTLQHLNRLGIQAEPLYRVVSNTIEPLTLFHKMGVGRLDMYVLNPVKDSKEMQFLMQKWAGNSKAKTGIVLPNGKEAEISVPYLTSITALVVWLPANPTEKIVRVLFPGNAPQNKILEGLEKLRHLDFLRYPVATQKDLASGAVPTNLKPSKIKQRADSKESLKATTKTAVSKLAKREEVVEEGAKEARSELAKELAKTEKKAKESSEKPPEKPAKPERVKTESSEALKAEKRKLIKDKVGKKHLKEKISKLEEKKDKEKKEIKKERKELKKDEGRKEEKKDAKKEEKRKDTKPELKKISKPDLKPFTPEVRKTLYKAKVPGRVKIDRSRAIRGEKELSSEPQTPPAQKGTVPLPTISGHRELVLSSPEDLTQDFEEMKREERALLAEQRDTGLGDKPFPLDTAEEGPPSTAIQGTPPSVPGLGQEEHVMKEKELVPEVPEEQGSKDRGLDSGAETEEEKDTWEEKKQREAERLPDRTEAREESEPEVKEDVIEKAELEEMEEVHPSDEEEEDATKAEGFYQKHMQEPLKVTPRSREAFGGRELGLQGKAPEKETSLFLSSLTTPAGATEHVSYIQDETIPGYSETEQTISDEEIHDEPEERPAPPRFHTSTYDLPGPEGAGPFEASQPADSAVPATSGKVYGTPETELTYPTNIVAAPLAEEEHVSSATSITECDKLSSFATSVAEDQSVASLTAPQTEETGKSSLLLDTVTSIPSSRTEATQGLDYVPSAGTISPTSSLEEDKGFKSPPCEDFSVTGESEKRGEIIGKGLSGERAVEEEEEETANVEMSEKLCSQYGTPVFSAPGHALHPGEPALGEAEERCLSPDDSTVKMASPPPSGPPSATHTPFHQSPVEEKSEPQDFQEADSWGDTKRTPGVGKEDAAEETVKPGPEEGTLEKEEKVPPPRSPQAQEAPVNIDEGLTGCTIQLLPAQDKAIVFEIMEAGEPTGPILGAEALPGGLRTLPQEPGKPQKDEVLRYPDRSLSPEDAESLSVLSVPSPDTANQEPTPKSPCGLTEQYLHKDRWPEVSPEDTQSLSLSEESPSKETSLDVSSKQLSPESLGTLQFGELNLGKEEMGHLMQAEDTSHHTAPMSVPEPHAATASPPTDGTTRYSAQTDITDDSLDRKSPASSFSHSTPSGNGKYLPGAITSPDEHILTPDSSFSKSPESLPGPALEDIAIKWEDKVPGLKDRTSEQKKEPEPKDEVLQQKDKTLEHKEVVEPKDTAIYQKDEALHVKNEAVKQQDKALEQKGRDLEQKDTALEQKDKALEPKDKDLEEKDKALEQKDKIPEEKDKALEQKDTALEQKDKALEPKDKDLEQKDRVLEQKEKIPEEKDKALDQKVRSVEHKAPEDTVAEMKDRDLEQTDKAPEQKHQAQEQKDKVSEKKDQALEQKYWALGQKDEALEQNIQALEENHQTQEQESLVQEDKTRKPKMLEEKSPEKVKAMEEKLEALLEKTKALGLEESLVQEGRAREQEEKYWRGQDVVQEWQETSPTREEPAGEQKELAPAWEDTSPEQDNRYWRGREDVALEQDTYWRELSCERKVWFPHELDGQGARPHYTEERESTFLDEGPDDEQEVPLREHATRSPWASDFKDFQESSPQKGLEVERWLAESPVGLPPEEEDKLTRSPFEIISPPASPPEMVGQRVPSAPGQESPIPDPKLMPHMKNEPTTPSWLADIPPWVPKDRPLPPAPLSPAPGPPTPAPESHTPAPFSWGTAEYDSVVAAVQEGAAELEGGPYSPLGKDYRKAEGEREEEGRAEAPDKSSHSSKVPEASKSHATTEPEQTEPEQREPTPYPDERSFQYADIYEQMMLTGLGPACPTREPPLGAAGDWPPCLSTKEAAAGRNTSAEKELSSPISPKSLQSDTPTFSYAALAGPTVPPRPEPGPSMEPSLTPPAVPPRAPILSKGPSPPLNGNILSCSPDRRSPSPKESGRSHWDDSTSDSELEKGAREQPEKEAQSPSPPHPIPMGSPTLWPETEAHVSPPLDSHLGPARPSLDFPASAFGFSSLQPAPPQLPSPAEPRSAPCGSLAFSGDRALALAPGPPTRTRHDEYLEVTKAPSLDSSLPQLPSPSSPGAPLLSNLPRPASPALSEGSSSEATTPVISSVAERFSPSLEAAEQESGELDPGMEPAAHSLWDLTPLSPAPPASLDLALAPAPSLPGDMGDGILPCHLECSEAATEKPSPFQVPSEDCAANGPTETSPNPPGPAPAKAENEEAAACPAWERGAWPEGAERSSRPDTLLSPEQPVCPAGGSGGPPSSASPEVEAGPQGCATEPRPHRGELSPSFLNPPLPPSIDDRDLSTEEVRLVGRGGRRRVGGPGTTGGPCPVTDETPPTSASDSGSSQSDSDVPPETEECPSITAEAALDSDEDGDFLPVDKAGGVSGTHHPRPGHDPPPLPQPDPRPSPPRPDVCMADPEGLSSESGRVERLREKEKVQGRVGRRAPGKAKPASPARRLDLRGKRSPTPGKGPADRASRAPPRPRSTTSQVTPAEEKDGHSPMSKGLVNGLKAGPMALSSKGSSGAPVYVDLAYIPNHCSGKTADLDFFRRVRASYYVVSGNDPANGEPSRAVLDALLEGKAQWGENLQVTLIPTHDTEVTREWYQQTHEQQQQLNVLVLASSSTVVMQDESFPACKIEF

Substance | solubility in G1/S (log2) [1] | solubility change mitosis (log2) [2]
MASSHSSSPVPQGSSSDVFFKIEVDPSKHIRPVPSLPDVCPKEPTGDSHSLYVAPSLVTDQHRWTVYHSKVNLPAALNDPRLAKRESDFFTKTWGLDFVDTEVIPSFYLPQISKEHFTVYQQEISQREKIHERCKNICPPKDTFERTLLHTHDKSRTDLEQVPKIFMKPDFALDDSLTFNSVLPWSHFNTAGGKGNRDAASSKLLQEKLSHYLDIVEVNIAHQISLRSEAFFHAMTSQHELQDYLRKTSQAVKMLRDKIAQIDKVMCEGSLHILRLALTRNNCVKVYNKLKLMATVHQTQPTVQVLLSTSEFVGALDLIATTQEVLQQELQGIHSFRHLGSQLCELEKLIDKMMIAEFSTYSHSDLNRPLEDDCQVLEEERLISLVFGLLKQRKLNFLEIYGEKMVITAKNIIKQCVINKVSQTEEIDTDVVVKLADQMRMLNFPQWFDLLKDIFSKFTIFLQRVKATLNIIHSVVLSVLDKNQRTRELEEISQQKNAAKDNSLDTEVAYLIHEGMFISDAFGEGELTPIAVDTTSQRNASPNSEPCSSDSVSEPECTTDSSSSKEHTSSSAIPGGVDIMVSEDMKLTDSELGKLANNIQELLYSASDICHDRAVKFLMSRAKDGFLEKLNSMEFITLSRLMETFILDTEQICGRKSTSLLGALQSQAIKFVNRFHEERKTKLSLLLDNERWKQADVPAEFQDLVDSLSDGKIALPEKKSGATEERKPAEVLIVEGQQYAVVGTVLLLIRIILEYCQCVDNIPSVTTDMLTRLSDLLKYFNSRSCQLVLGAGALQVVGLKTITTKNLALSSRCLQLIVHYIPVIRAHFEARLPPKQYSMLRHFDHITKDYHDHIAEISAKLVAIMDSLFDKLLSKYEVKAPVPSACFRNICKQMTKMHEAIFDLLPEEQTQMLFLRINASYKLHLKKQLSHLNVINDGGPQNGLVTADVAFYTGNLQALKGLKDLDLNMAEIWEQKR [VPS54] | -0.136 | 0.126
MWCLHCNSERTQSLLELELDSGVEGEAPSSETGTSLDSPSAYPQGPLVPGSSLSPDHYEHTSVGAYGLYSGPPGQQQRTRRPKLQHSTSILRKQAEEEAIKRSRSLSESYELSSDLQDKQVEMLERKYGGRLVTRHAARTIQTAFRQYQMNKNFERLRSSMSENRMSRRIVLSNMRMQFSFEGPEKVHSSYFEGKQVSVTNDGSQLGALVSPECGDLSEPTTLKSPAPSSDFADAITELEDAFSRQVKSLAESIDDALNCRSLHTEEAPALDAARARDTEPQTALHGMDHRKLDEMTASYSDVTLYIDEEELSPPLPLSQAGDRPSSTESDLRLRAGGAAPDYWALAHKEDKADTDTSCRSTPSLERQEQRLRVEHLPLLTIEPPSDSSVDLSDRSERGSLKRQSAYERSLGGQQGSPKHGPHSGAPKSLPREEPELRPRPPRPLDSHLAINGSANRQSKSESDYSDGDNDSINSTSNSNDTINCSSESSSRDSLREQTLSKQTYHKEARNSWDSPAFSNDVIRKRHYRIGLNLFNKKPEKGVQYLIERGFVPDTPVGVAHFLLQRKGLSRQMIGEFLGNRQKQFNRDVLDCVVDEMDFSTMELDEALRKFQAHIRVQGEAQKVERLIEAFSQRYCICNPGVVRQFRNPDTIFILAFAIILLNTDMYSPNVKPERKMKLEDFIKNLRGVDDGEDIPREMLMGIYERIRKRELKTNEDHVSQVQKVEKLIVGKKPIGSLHPGLGCVLSLPHRRLVCYCRLFEVPDPNKPQKLGLHQREIFLFNDLLVVTKIFQKKKNSVTYSFRQSFSLYGMQVLLFENQYYPNGIRLTSSVPGADIKVLINFNAPNPQDRKKFTDDLRESIAEVQEMEKHRIESELEKQKGVVRPSMSQCSSLKKESGNGTLSRACLDDSYASGEGLKRSALSSSLRDLSEAGKRGRRSSAGSLESNVEFQPFEPLQPSVLCS [IQSEC1] | -0.0654 | -0.0422
MSFLIDSSIMITSQILFFGFGWLFFMRQLFKDYEIRQYVVQVIFSVTFAFSCTMFELIIFEILGVLNSSSRYFHWKMNLCVILLILVFMVPFYIGYFIVSNIRLLHKQRLLFSCLLWLTFMYFFWKLGDPFPILSPKHGILSIEQLISRVGVIGVTLMALLSGFGAVNCPYTYMSYFLRNVTDTDILALERRLLQTMDMIISKKKRMAMARRTMFQKGEVHNKPSGFWGMIKSVTTSASGSENLTLIQQEVDALEELSRQLFLETADLYATKERIEYSKTFKGKYFNFLGYFFSIYCVWKIFMATINIVFDRVGKTDPVTRGIEITVNYLGIQFDVKFWSQHISFILVGIIIVTSIRGLLITLTKFFYAISSSKSSNVIVLLLAQIMGMYFVSSVLLIRMSMPLEYRTIITEVLGELQFNFYHRWFDVIFLVSALSSILFLYLAHKQAPEKQMAP [GPR89B] | -0.0559 | -0.167
NEK6 | 0.1 | -0.09
MERAVRVESGVLVGVVCLLLACPATATGPEVAQPEVDTTLGRVRGRQVGVKGTDRLVNVFLGIPFAQPPLGPDRFSAPHPAQPWEGVRDASTAPPMCLQDVESMNSSRFVLNGKQQIFSVSEDCLVLNVYSPAEVPAGSGRPVMVWVHGGALITGAATSYDGSALAAYGDVVVVTVQYRLGVLGFFSTGDEHAPGNQGFLDVVAALRWVQENIAPFGGDLNCVTVFGGSAGGSIISGLVLSPVAAGLFHRAITQSGVITTPGIIDSHPWPLAQKIANTLACSSSSPAEMVQCLQQKEGEELVLSKKLKNTIYPLTVDGTVFPKSPKELLKEKPFHSVPFLMGVNNHEFSWLIPRGWGLLDTMEQMSREDMLAISTPVLTSLDVPPEMMPTVIDEYLGSNSDAQAKCQAFQEFMGDVFINVPTVSFSRYLRDSGSPVFFYEFQHRPSSFAKIKPAWVKADHGAEGAFVFGGPFLMDESSRLAFPEATEEEKQLSLTMMAQWTHFARTGDPNSKALPPWPQFNQAEQYLEINPVPRAGQKFREAWMQFWSETLPSKIQQWHQKQKNRKAQEDL [CES3] | 0.261 | -0.166
MTEKAPEPHVEEDDDDELDSKLNYKPPPQKSLKELQEMDKDDESLIKYKKTLLGDGPVVTDPKAPNVVVTRLTLVCESAPGPITMDLTGDLEALKKETIVLKEGSEYRVKIHFKVNRDIVSGLKYVQHTYRTGVKVDKATFMVGSYGPRPEEYEFLTPVEEAPKGMLARGTYHNKSFFTDDDKQDHLSWEWNLSIKKEWTE [ARHGDIB] | 0.0837 | -0.0572
MRDADADAGGGADGGDGRGGHSCRGGVDTAAAPAGGAPPAHAPGPGRDAASAARGSRMRPHIFTLSVPFPTPLEAEIAHGSLAPDAEPHQRVVGKDLTVSGRILVVRWKAEDCRLLRISVINFLDQLSLVVRTMQRFGPPVSR [LAGE3] | 0.0355 | 0.0284
TAF1 | -0.408 | 0.0526
CEP192 | -0.295 | -0.137
CHD1 | -2.28 | 0.383
MGSLSGLRLAAGSCFRLCERDVSSSLRLTRSSDLKRINGFCTKPQESPGAPSRTYNRVPLHKPTDWQKKILIWSGRFKKEDEIPETVSLEMLDAAKNKMRVKISYLMIALTVVGCIFMVIEGKKAAQRHETLTSLNLEKKARLKEEAAMKAKTE [FAM162A] | 0.312 | 0.327
PCIF1 | 0.0856 | -0.0368
MRSRVLWGAARWLWPRRAVGPARRPLSSGSPPLEELFTRGGPLRTFLERQAGSEAHLKVRRPELLAVIKLLNEKERELRETEHLLHDENEDLRKLAENEITLCQKEITQLKHQIILLLVPSEETDENDLILEVTAGVGGQEAMLFTSEIFDMYQQYAAFKRWHFETLEYFPSELGGLRHASASIGGSEAYRHMKFEGGVHRVQRVPKTEKQGRVHTSTMTVAILPQPTEINLVINPKDLRIDTKRASGAGGQHVNTTDSAVRIVHLPTGVVSECQQERSQLKNKELAMTKLRAKLYSMHLEEEINKRQNARKIQIGSKGRSEKIRTYNFPQNRVTDHRINKTLHDLETFMQGDYLLDELVQSLKEYADYESLVEIISQKV [MTRF1L] | -0.0262 | 0.288
MAGPQMGGSAEDHPPRKRHAAEKQKKKTVIYTKCFEFESATQRPIDRQRYDENEDLSDVEEIVSVRGFSLEEKLRSQLYQGDFVHAMEGKDFNYEYVQREALRVPLIFREKDGLGIKMPDPDFTVRDVKLLVGSRRLVDVMDVNTQKGTEMSMSQFVRYYETPEAQRDKLYNVISLEFSHTKLEHLVKRPTVVDLVDWVDNMWPQHLKEKQTEATNAIAEMKYPKVKKYCLMSVKGCFTDFHIDFGGTSVWYHVFRGGKIFWLIPPTLHNLALYEEWVLSGKQSDIFLGDRVERCQRIELKQGYTFFIPSGWIHAVYTPVDSLVFGGNILHSFNVPMQLRIYEIEDRTRVQPKFRYPFYYEMCWYVLERYVYCVTQRSHLTQEYQRESMLIDAPRKPSIDGFSSDSWLEMEEEACDQQPQEEEEKDEEGEGRDRAPKPPTDGSTSPTSTPSEDQEALGKKPKAPALRFLKRTLSNESEESVKSTTLAVDYPKTPTGSPATEVSAKWTHLTEFELKGLKALVEKLESLPENKKCVPEGIEDPQALLEGVKNVLKEHADDDPSLAITGVPVVTWPKKTPKNRAVGRPKGKLGPASAVKLAANRTTAGARRRRTRCRKCEACLRTECGECHFCKDMKKFGGPGRMKQSCIMRQCIAPVLPHTAVCLVCGEAGKEDTVEEEEGKFNLMLMECSICNEIIHPGCLKIKESEGVVNDELPNCWECPKCNHAGKTGKQKRGPGFKYASNLPGSLLKEQKMNRDNKEGQEPAKRRSECEEAPRRRSDEHSKKVPPDGLLRRKSDDVHLRKKRKYEKPQELSGRKRASSLQTSPGSSSHLSPRPPLGSSLSPWWRSSLTYFQQQLKPGKEDKLFRKKRRSWKNAEDRMALANKPLRRFKQEPEDELPEAPPKTRESDHSRSSSPTAGPSTEGAEGPEEKKKVKMRRKRRLPNKELSRELSKELNHEIQRTENSLANENQQPIKSEPESEGEEPKRPPGICERPHRFSKGLNGTPRELRHQLGPSLRSPPRVISRPPPSVSPPKCIQMERHVIRPPPISPPPDSLPLDDGAAHVMHREVWMAVFSYLSHQDLCVCMRVCRTWNRWCCDKRLWTRIDLNHCKSITPLMLSGIIRRQPVSLDLSWTNISKKQLSWLINRLPGLRDLVLSGCSWIAVSALCSSSCPLLRTLDVQWVEGLKDAQMRDLLSPPTDNRPGQMDNRSKLRNIVELRLAGLDITDASLRLIIRHMPLLSKLHLSYCNHVTDQSINLLTAVGTTTRDSLTEINLSDCNKVTDQCLSFFKRCGNICHIDLRYCKQVTKEGCEQFIAEMSVSVQFGQVEEKLLQKLS [KDM2B] | -0.295 | 0.226
MAP1A | -0.122 | -0.0549
MDPQPPPPAQGSPPHRGRGRGRGRGRGRGRGRGRGGAGAPRAPLPCPTCGRLFRFPYYLSRHRLSHSGLRPHACPLCPKAFRRPAHLSRHLRGHGPQPPLRCAACPRTFPEPAQLRRHLAQEHAGGEVELAIERVAKETAEPSWGPQDEGSEPPTTAAAGATEEEAVAAWPETWPAGEPSTLAAPTSAAEPRESESEEAEAGAAELRAELALAAGRQEEKQVLLQADWTLLCLRCREAFATKGELKAHPCLRPEGEQEGEGGPPPRPKRHQCSICLKAFARPWSLSRHRLVHSTDRPFVCPDCGLAFRLASYLRQHRRVHGPLSLLAPLPAAGKKDDKASGARNSAKGPEGGEGAECGGASEGGEGQNGGDAAPARPPAGEPRFWCPECGKGFRRRAHLRQHGVTHSGARPFQCVRCQREFKRLADLARHAQVHAGGPAPHPCPRCPRRFSRAYSLLRHQRCHRAELERAAALQALQAQAPTSPPPPPPPLKAEQEEEGLPLPLANIKEEPPSPGTPPQSPPAPPVFLSASCFDSQDHSAFEMEEEEVDSKAHLRGLGGLAS [ZNF579] | -0.0421 | 0.288
